Results published in article PMC6400189, “A three-domain copper-nitrite reductase with a unique sensing loop” (IUCrJ, 2019).

Key:
[1] = molecular target: Copper-containing nitrite reductase (NirK) from Thermus scotoductus SA-01 (Thermus scotoductus SA-01); assay: SEC; Superdex 200 10/300 column, 150 mM Tris-HCl pH 7.6, 0.5 ml/min, calibrated with mass markers; subunit mass by SDS-PAGE
[2] = molecular target: Copper-containing nitrite reductase (NirK) from Thermus scotoductus SA-01 (Thermus scotoductus SA-01); assay: crystal structure; twinned H3 crystals with one protomer in the asymmetric unit; trimer by the crystallographic threefold axis; data not shown
[3] = molecular target: Copper-containing nitrite reductase (NirK) from Thermus scotoductus SA-01 (Thermus scotoductus SA-01); assay: crystal structure; C121 crystal with the whole homotrimer in the asymmetric unit, 1.63 Å; 0.2 M CaCl2, 0.1 M HEPES sodium pH 7.5, 28% PEG 400, 16°C
[4] = substrate: O=NO; assay: nitrite reductase kinetics, methyl viologen standard assay; assay type: biochemical, Thermus scotoductus; conditions: methyl viologen (dithionite-reduced) as artificial electron donor per standard NirK assay; apparent constant

| stoichiometry N [1] | stoichiometry N [2] | stoichiometry N [3] | Molecule | Km [4] [µM] | kcat [4] [s⁻¹] |
| --- | --- | --- | --- | --- | --- |
| 3 | 3 | 3 | Copper-containing nitrite reductase (NirK) from Thermus scotoductus SA-01 (enzyme) |  |  |
|  |  |  | TsNirK (Thermus scotoductus SA-01) (protein, codon-optimised gene in pET-22b(+), E. coli BL21(DE3); 451-residue subunits (~50 kDa), homotrimer, three Cu per subunit; domains Ala20-Glu137, Leu154-Ala282, Arg309-Leu444) AERHFTLEARSSIFEVDQGVYLRGFSFNDMSPGPMLVVEEGDTVHITLRNLDNVTHGLSIHAANTQTSRFLGNVQPGETREFSFTADFPGVFMYHCAPGGHGIMAHTMGGQFGMIVVEPKEKYRMERELGRGPDLKLYIIQSEAYASGRDFYDGKALYVMFNGRNFRYVDEPIPVRPGDYLRIYFLNVGPNLTSTLHVVGGIFEYMYYQGNPKNLVVGAQTALAGPSDSWVIEWRVPPVEGDYTLVTHVFGTAIKGALGILRAKKDAPRIPEVRAEGVPGVKEIPASAKRVVDPYGLASPGHEHTVRVPLDPALAQPVAVGAKALEPLPVTVQMVGNSFYPKVLEIPVGTTVEFVNEDVFDLLEGERTGRHDAVVIDVQGPEPFVTPKLGHGERYRITFTKPGEYVYICSIHPYMKGIIRVYEPLSQRADSQ | 27 ± 2 | 65 ± 1 |
